Biological target: beclin 1 (UniProt O88597)
Test: anti-BCL2 IP, beclin 1 blot
Settings: sites T69,S70,S84

Row | Substance | binding against the reference (reference: wild-type MEFs, starved) | binding against the reference (reference: wild-type muscle, exercised)
1 | BCL2 (from UniProt P10417) BCL2 AAA MEFs, starved | stronger | 
2 | BCL2 (from UniProt P10417) BCL2 AAA muscle, exercised |  | stronger

Source: PMC3518436
